According to article PMC2952866 (Nucleic Acids Research, 2010):

T1: Mcm4 (Saccharomyces cerevisiae, UniProt P30665 1-933)
T1 sequence: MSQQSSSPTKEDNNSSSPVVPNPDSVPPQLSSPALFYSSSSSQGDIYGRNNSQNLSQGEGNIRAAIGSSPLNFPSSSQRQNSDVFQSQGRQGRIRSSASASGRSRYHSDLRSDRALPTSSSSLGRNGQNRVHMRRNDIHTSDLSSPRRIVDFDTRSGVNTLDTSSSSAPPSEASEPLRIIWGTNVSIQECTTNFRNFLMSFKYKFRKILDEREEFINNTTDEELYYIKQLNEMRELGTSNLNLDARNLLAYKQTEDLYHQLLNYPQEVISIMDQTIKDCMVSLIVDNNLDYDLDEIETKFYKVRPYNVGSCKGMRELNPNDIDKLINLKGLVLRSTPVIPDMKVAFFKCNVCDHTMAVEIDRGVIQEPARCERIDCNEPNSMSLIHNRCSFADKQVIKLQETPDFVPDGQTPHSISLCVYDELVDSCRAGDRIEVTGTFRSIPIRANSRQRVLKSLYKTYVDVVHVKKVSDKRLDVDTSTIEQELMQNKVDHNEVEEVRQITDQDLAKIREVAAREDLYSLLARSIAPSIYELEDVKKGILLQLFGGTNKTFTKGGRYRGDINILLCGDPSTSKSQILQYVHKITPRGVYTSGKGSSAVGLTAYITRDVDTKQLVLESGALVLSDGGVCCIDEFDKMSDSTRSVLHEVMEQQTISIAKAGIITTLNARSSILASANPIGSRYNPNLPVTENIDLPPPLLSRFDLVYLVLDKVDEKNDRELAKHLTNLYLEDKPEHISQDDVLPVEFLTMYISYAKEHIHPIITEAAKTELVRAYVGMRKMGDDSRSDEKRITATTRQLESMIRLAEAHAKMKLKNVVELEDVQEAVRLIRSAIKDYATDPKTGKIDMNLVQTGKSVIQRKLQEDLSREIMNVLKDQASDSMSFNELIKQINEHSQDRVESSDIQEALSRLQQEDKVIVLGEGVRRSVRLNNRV

T2: Mcm7 (Saccharomyces cerevisiae, UniProt P38132 1-845)
T2 sequence: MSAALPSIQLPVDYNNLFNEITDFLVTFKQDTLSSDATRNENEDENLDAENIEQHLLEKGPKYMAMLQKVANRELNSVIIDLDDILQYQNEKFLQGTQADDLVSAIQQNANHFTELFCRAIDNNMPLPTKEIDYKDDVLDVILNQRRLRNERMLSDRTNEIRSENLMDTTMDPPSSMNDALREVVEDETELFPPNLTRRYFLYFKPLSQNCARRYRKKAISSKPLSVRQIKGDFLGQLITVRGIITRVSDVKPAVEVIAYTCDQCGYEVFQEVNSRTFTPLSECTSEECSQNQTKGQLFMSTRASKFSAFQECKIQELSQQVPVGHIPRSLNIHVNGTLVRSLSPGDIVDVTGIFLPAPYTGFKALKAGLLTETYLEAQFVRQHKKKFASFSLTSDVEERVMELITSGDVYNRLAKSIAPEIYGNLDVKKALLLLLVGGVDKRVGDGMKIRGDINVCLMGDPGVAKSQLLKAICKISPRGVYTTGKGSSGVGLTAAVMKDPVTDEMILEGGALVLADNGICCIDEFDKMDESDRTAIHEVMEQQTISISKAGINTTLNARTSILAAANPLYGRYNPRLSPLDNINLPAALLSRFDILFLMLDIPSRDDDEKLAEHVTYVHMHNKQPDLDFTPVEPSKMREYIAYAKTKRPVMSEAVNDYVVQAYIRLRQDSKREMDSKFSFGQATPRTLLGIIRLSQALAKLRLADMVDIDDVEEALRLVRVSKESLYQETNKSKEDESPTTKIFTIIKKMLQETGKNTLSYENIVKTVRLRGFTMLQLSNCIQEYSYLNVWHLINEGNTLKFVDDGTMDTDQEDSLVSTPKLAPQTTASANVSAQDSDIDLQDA

B1: Mcm2 (natural protein)
chain: MSDNRRRRREEDDSDSENELPPSSPQQHFRGGMNPVSSPIGSPDMINPEGDDNEVDDVPDIDEVEEQMNEVDLMDDNMYEDYAADHNRDRYDPDQVDDREQQELSLSERRRIDAQLNERDRLLRNVAYIDDEDEEQEGAAQLDEMGLPVQRRRRRRQYEDLENSDDDLLSDMDIDPLREELTLESLSNVKANSYSEWITQPNVSRTIARELKSFLLEYTDETGRSVYGARIRTLGEMNSESLEVNYRHLAESKAILALFLAKCPEEMLKIFDLVAMEATELHYPDYARIHSEIHVRISDFPTIYSLRELRESNLSSLVRVTGVVTRRTGVFPQLKYVKFNCLKCGSILGPFFQDSNEEIRISFCTNCKSKGPFRVNGEKTVYRNYQRVTLQEAPGTVPPGRLPRHREVILLADLVDVSKPGEEVEVTGIYKNNYDGNLNAKNGFPVFATIIEANSIKRREGNTANEGEEGLDVFSWTEEEEREFRKISRDRGIIDKIISSMAPSIYGHRDIKTAVACSLFGGVPKNVNGKHSIRGDINVLLLGDPGTAKSQILKYVEKTAHRAVFATGQGASAVGLTASVRKDPITKEWTLEGGALVLADKGVCLIDEFDKMNDQDRTSIHEAMEQQSISISKAGIVTTLQARCSIIAAANPNGGRYNSTLPLAQNVSLTEPILSRFDILCVVRDLVDEEADERLATFVVDSHVRSHPENDEDREGEELKNNGESAIEQGEDEINEQLNARQRRLQRQRKKEEEISPIPQELLMKYIHYARTKIYPKLHQMDMDKVSRVYADLRRESISTGSFPITVRHLESILRIAESFAKMRLSEFVSSYDLDRAIKVVVDSFVDAQKVSVRRQLRRSFAIYTLGH
B2: Mcm5 (natural protein)
chain: MSFDRPEIYSAPVLQGESPNDDDNTEIIKSFKNFILEFRLDSQFIYRDQLRNNILVKNYSLTVNMEHLIGYNEDIYKKLSDEPSDIIPLFETAITQVAKRISILSRAQSANNNDKDPENTSMDTDSLLLNSLPTFQLILNSNANQIPLRDLDSEHVSKIVRLSGIIISTSVLSSRATYLSIMCRNCRHTTSITINNFNSITGNTVSLPRSCLSTIESESSMANESNIGDESTKKNCGPDPYIIIHESSKFIDQQFLKLQEIPELVPVGEMPRNLTMTCDRYLTNKVIPGTRVTIVGIYSIYNSKNGAGSGRSGGGNGGSGVAIRTPYIKILGIQSDVETSSIWNSVTMFTEEEEEEFLQLSRNPKLYEILTNSIAPSIFGNEDIKKAIVCLLMGGSKKILPDGMRLRGDINVLLLGDPGTAKSQLLKFVEKVSPIAVYTSGKGSSAAGLTASVQRDPMTREFYLEGGAMVLADGGVVCIDEFDKMRDEDRVAIHEAMEQQTISIAKAGITTVLNSRTSVLAAANPIYGRYDDLKSPGDNIDFQTTILSRFDMIFIVKDDHNEERDISIANHVINIHTGNANAMQNQQEENGSEISIEKMKRYITYCRLKCAPRLSPQAAEKLSSNFVTIRKQLLINELESTERSSIPITIRQLEAIIRITESLAKLELSPIAQERHVDEAIRLFQASTMDAASQDPIGGLNQASGTSLSEIRRFEQELKRRLPIGWSTSYQTLRREFVDTHRFSQLALDKALYALEKHETIQLRHQGQNIYRSGV
B3: Mcm3 (natural protein)
chain: MEGSTGFDGDATTFFAPDAVFGDRVRRFQEFLDTFTSYRDSVRSIQVYNSNNAANYNDDQDDADERDLLGDDDGDDLEKEKKAASSTSLNILPHRIIISLDDLREFDRSFWSGILVEPAYFIPPAEKALTDLADSMDDVPHPNASAVSSRHPWKLSFKGSFGAHALSPRTLTAQHLNKLVSVEGIVTKTSLVRPKLIRSVHYAAKTGRFHYRDYTDATTTLTTRIPTPAIYPTEDTEGNKLTTEYGYSTFIDHQRITVQEMPEMAPAGQLPRSIDVILDDDLVDKTKPGDRVNVVGVFKSLGAGGMNQSNSNTLIGFKTLILGNTVYPLHARSTGVAARQMLTDFDIRNINKLSKKKDIFDILSQSLAPSIYGHDHIKKAILLMLMGGVEKNLENGSHLRGDINILMVGDPSTAKSQLLRFVLNTASLAIATTGRGSSGVGLTAAVTTDRETGERRLEAGAMVLADRGVVCIDEFDKMTDVDRVAIHEVMEQQTVTIAKAGIHTTLNARCSVIAAANPVFGQYDVNRDPHQNIALPDSLLSRFDLLFVVTDDINEIRDRSISEHVLRTHRYLPPGYLEGEPVRERLNLSLAVGEDADINPEEHSNSGAGVENEGEDDEDHVFEKFNPLLQAGAKLAKNKGNYNGTEIPKLVTIPFLRKYVQYAKERVIPQLTQEAINVIVKNYTDLRNDDNTKKSPITARTLETLIRLATAHAKVRLSKTVNKVDAKVAANLLRFALLGEDIGNDIDEEESEYEEALSKRSPQKSPKKRQRVRQPASNSGSPIKSTPRRSTASSVNATPSSARRILRFQDDEQNAGEDDNDIMSPLPADEEAELQRRLQLGLRVSPRRREHLHAPEEGSSGPLTEVGTPRLPNVSSAGQDDEQQQSVISFDNVEPGTISTGRLSLISGIIARLMQTEIFEEESYPVASLFERINEELPEEEKFSAQEYLAGLKIMSDRNNLMVADDKVWRV

Key:
Test in all cases: SEC + co-IP
[1] = target: B3
[2] = target: T1, Mcm4
[3] = target: T2, Mcm7
[4] = target: Mcm6 (Saccharomyces cerevisiae, UniProt P53091 1-1017)
Mcm6, sequence (P53091 whole entry): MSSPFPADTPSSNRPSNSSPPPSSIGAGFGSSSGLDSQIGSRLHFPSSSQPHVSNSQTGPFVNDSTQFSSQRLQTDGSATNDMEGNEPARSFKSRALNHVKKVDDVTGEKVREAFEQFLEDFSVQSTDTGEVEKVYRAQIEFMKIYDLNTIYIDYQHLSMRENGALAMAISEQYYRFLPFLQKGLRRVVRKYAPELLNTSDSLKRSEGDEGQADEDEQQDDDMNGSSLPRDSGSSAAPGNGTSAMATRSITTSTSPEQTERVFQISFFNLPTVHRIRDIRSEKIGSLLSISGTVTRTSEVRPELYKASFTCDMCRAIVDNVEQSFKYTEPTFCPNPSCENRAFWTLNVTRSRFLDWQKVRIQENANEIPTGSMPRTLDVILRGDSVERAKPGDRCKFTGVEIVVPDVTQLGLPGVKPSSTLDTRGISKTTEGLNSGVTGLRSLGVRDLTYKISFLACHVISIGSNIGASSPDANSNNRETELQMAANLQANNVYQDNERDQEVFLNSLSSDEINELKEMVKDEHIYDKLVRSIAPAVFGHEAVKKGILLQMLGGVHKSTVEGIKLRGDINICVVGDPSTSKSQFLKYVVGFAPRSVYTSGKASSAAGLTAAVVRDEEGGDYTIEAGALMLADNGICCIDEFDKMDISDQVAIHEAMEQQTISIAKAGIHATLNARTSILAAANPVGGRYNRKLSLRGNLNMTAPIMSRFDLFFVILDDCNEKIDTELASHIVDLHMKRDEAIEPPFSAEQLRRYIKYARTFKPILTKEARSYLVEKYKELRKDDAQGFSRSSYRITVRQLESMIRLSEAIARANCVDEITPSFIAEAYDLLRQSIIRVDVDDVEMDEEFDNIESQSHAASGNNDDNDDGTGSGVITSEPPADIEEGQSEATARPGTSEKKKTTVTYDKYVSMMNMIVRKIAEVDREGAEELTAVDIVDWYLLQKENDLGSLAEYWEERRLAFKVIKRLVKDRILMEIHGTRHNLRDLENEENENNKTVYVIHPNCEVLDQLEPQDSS

B1: binds [1]; binds [2].

B2: binds [3]; binds [4].

B3: binds [4].
